In test [1] the target is human TGFβ1 protein (Sinobiological, 10804-H08H) (human) (UniProt P01137). In words: ELISA with reference to Example 5, reference sample. In general terms: ELISA stands for enzyme-linked immunosorbent assay.
Test [2] has the same target. In words: ELISA with reference to Example 5, plate coated with human TGFβ1.
Test [3] has the same target. In words: ELISA, plate coated with human TGFβ1, HRP-goat anti-human IgG detection.

Among the data in patent US20230235057A1 are Binding activity (EC50 of control / EC50 of test sample) and EC50 values, retold here.

PD1/TGFβRII fusion protein, sequence (heavy): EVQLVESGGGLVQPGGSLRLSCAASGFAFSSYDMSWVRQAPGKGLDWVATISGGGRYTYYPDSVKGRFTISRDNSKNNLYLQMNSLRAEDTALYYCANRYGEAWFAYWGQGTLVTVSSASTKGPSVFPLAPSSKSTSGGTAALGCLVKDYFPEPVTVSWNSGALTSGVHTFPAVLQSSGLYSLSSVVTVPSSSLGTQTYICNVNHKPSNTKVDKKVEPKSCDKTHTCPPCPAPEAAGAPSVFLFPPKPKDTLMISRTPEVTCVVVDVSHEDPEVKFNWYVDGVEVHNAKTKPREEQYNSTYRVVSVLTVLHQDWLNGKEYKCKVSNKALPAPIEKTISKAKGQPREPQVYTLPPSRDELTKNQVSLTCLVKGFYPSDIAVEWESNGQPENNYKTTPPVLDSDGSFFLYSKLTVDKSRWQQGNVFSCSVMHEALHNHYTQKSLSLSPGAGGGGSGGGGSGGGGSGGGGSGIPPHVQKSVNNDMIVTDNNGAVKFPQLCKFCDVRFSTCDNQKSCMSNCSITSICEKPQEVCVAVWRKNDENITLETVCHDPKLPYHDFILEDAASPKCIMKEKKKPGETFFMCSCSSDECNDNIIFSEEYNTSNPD
PD1/TGFβRII fusion protein, sequence (light): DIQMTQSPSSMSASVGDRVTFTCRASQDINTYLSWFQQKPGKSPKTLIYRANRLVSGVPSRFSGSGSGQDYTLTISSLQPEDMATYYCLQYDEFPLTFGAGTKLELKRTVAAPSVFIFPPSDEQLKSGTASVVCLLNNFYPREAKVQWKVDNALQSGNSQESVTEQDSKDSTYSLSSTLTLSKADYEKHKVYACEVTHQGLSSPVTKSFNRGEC

The term EC50 denotes the concentration needed to bring the measured effect to its halfway point. Read a high EC50 as a need for much substance. In test [1], PD1/TGFβRII fusion protein registered a Binding activity (EC50 of control / EC50 of test sample) of 100%. Also, the EC50 in test [2] worked out at 0.0617 µg/mL; in test [3], 0.398 nM.
